US20210139582A1

Experiments:
[1] = biological target: C-terminus biotinylated monomeric human CD32a^R (FcγRIIa, arginine-131 variant), recombinant (human) (UniProt P12318); assay: SPR, estimated steady state KD, monomeric IgG, pH 7.4
[2] = biological target: C-terminus biotinylated monomeric human CD32a^H (FcγRIIa, histidine-131 variant), recombinant (human) (UniProt P12318); assay: as above
C-terminus biotinylated monomeric human CD32a^H (FcγRIIa, histidine-131 variant), recombinant (human), sequence (P12318 34-218 limits assumed, change not shown): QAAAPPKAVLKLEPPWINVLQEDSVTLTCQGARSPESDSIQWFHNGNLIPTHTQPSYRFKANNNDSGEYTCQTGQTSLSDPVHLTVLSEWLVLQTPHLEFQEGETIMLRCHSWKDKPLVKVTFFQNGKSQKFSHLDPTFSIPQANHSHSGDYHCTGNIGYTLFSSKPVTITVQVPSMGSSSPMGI

C-terminus biotinylated monomeric human CD32a^R (FcγRIIa, arginine-131 variant), recombinant (human), sequence (P12318 other isoform, or with tags, fused parts or gaps mutant): as the sequence (P12318 34-218 limits assumed, change not shown) above, with H134R counted along it
anti-NIP mouse IgG2a (mIgG2a^WT) (antibody), sequence (P01863 whole entry): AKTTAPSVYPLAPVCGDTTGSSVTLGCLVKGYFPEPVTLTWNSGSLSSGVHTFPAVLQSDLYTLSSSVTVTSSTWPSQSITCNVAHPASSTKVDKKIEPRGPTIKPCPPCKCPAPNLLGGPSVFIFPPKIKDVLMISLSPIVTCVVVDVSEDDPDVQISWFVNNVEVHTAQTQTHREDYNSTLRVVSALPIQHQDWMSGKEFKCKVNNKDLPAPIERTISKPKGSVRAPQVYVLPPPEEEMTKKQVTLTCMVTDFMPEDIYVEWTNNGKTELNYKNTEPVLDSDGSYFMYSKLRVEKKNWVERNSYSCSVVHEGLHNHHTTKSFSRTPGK

Kd [1] [µM] | Kd [2] [µM] | Substance
3.7 |  | anti-NIP hIgG1-I253A/H310A/H435A (hIgG1^IHH) (from UniProt P01857 1-330) (antibody)
2 | 1.3 | anti-NIP chimeric IgG with wild type human IgG1 Fc and murine anti-NIP antigen-binding domain (hIgG1^WT) (antibody)
4.5 | 5 | anti-NIP mouse IgG2b (mIgG2b^WT) (antibody)
3.6 | 3.4 | anti-NIP mouse IgG2a (mIgG2a^WT) (antibody)
5.2 | 1.4 | anti-NIP hIgG2 (hIgG2^WT) (antibody)
3.8 |  | anti-NIP hIgG1-M252Y/S254T/T256E/H433K/N434F (hIgG1^MST/HN) (from UniProt P01857 1-330) (antibody)
0.8 | 8.1 | anti-NIP mouse IgG1 (mIgG1^WT) (antibody)
